{"source": "paper PMC10943247", "assay_in_all_cases": "mass photometry; (N8-)CRL2^FEM1B wild type or mutant alone; 2 µL of 10 nM protein added to 18 μL of 50 mM HEPES pH 7.5, 150 mM NaCl", "key": {"[1]": {"molecular_target": "CRL2^FEM1B complex with FEM1B^F549S, unneddylated (human) (UniProt Q13617)"}, "[2]": {"molecular_target": "CRL2^FEM1B complex with FEM1B^F549R, unneddylated (human) (UniProt Q13617)"}, "[3]": {"molecular_target": "CRL2^FEM1B complex with FEM1B^F549T, unneddylated (human) (UniProt Q13617)"}}}
{"substance": "CRL2^FEM1B complex with FEM1B^F549S, unneddylated (from UniProt Q13617 1-745; P62877 1-108; Q15370 1-104; Q15369 17-112; Q9UK73 1-627)", "values": [{"measurement": "stoichiometry N", "setting": "[1]", "result": 2}]}
{"substance": "CRL2^FEM1B complex with FEM1B^F549R, unneddylated (from UniProt Q13617 1-745; P62877 1-108; Q15370 1-104; Q15369 17-112; Q9UK73 1-627)", "values": [{"measurement": "stoichiometry N", "setting": "[2]", "result": 2}]}
{"substance": "CRL2^FEM1B complex with FEM1B^F549T, unneddylated (from UniProt Q13617 1-745; P62877 1-108; Q15370 1-104; Q15369 17-112; Q9UK73 1-627)", "values": [{"measurement": "stoichiometry N", "setting": "[3]", "result": 2}]}
